Columns and labels:
NIH3T3 cells [1] = test: G418-resistant colony formation (cell proliferation) in NIH3T3 cells; assay type: cell-based, mouse
MEK = details: cited from earlier work
NIH3T3 cells [2] = test: Transformed foci formation (cell transformation) in NIH3T3 cells; assay type: cell-based, mouse; details: for Inhibition of cell transformation rates: H-RasV12 transformed cells; for Inhibition of cell transformation (foci formation): transformation by H-ras V12 or v-Src, constructs 1 μg each, FIG. 20
Procedure: Transformed foci formation was assayed in NIH3T3 cells transfected with H-ras V12 or v-Src (0.25 ng) plus constructs (1 μg each).
Additionally, experiments where inhibition of ERK signaling using ERK ligands of the invention was compared to siRNAs and a small molecule inhibitor. The commercial siRNAs were designed for target specificity to either the ERK1 (sc-29307) or ERK2 (sc-35335) isoforms (Santa Cruz Biotechnology, Inc.). The small molecule inhibitor, UO126 (1,4-diamino-2,3-dicyano-1,4-bis(2-aminophenylthio) butadiene), inhibits ERK signaling through its upstream effector, MEK, and ERK is the only known substrate for MEK. Assays performed were phenotypic assays. The effects of inhibiting ERK activity were measured by looking at functional properties of the cells associated with the MAPK signaling pathway, such as, cell proliferation and transformation. The MAPK signaling cascade in these experiments is initiated by transfection of the cells with a vector containing a constitutively active proto-oncogene, either H-RasV12 or v-Src, which eventually causes the cells to acquire enhanced growth rate (colony formation) and cell transformation rate (foci formation). Inhibition of ERK activity in this cascade will result in reduced rates of proliferation or transformation as measured by numbers of G418-resitant colonies or foci.
Next, the effect of ERK inhibition on cell transformation was investigated using two means of initiating signaling cascades that lead to this biological property (FIG. 20). The first method is the constitutively active Ras mutant used herein above. The second is a constitutively active nonreceptor tyrosine kinase v-Src mutant (pp 60v-src) that also leads to cell transformation, potentially by multiple signaling pathways including the Ras-Raf-MEK-ERK pathway. […] However, when transformation was initiated with v-Src, there was a difference in the inhibition specificity arising from use of SEQ ID NO:1 localized to the ER and PLA. […] That is, ER-localized SEQ ID NO:1 has a significant effect on transformation induced by H-RasV12 but little to no effect when transformation is induced by v-Src.

ERK = test: Localized inhibition of ERK-mediated myelin basic protein phosphorylation in Cos7 cells; assay type: cell-based
Excerpt: A constitutively-active form of the RasV12 protein, a known activator of MAPK signaling pathways, was used to activate ERK kinase in defined regions of Cos7 cells. Several fusion proteins as described by Matallanas et al. Mol Cell Biol. 2006 January; 26(1):100-116 (hereby incorporated by reference), were used to activate ERK kinase in specific subcellular compartments. The constitutively-active RasV12 protein promoted cell-wide activation of ERK. The Lck-RasV 12 fusion protein activated ERK-protein associated with lipid rafts in or near the plasma membrane. […] Lane 1: control. Lane 2: ERK activity in cells expressing active Lck-RasV12 fusion protein. Lane 3: ERK activity in cells co-expressing active Lck-RasV12 fusion protein, and ERK decoy protein (ER localization signal, a c-Myc epitope tag, and the ERK polyligand of SEQ ID NO:1). Lane 4: ERK activity in cells co-expressing active Lck-RasV12 fusion protein, and CAT fragment-containing ER localization control protein. Lane 5: ERK activity in cells expressing active M1-RasV12 fusion protein. Lane 6: ERK activity in cells co-expressing active M1-RasV12 fusion protein, and ERK decoy protein. Lane 7: ERK activity in cells co-expressing active M1-RasV12 fusion protein, and CAT fragment-containing ER localization control protein. […]
The localized ERK ligands were detected by immunostaining for the c-myc epitope tag.

[3] = pancellular polyligand, vector 1 μg, colonies counted after 15 days, FIG. 18
[4] = SEQ ID NO:1 fused to localization signals, constructs 1 μg each, 15 days, FIG. 19

Molecule | Inhibition of cell proliferation (G418-resistant colony formation) (NIH3T3 cells [1]; [3]) | Inhibition of cell transformation rates (NIH3T3 cells [2]) [%] | Inhibition of cell transformation (foci formation) (NIH3T3 cells [2]) | Inhibition of cell proliferation (G418-resistant colony formation) (NIH3T3 cells [1]; [4]) | other results
N#CC(=C(N)Sc1ccccc1N)C(C#N)=C(N)Sc1ccccc1N [UO126, 1,4-diamino-2,3-dicyano-1,4-bis(2-aminophenylthio) butadiene, reference compound] | – | – | – | – | Inhibition of colony formation (NIH3T3 cells [1]; UO126 1 μM, colonies counted after 15 days, FIG. 18): very effective; Potency for MEK (MEK): ~70 nM
SEQ ID NO:5: ERK heteropolyligand of SEQ ID NOS:32, 98, 33, 34, 35, 100, 36, 37, 107, Xaa alanine, with spacers (protein, Synthetic polyligand) PPLMAPPFYPQKGRKPRDLELPLAAAAKQAEAVTAPRGAGAKNIVTPRAPPPSQGKGGGGTLSPIAPRAPAKLSFQFPSSAGPGAEFLKPIESSILAQRRVRKLPSTAGAGKRELVEPLAPSGEAPNQALLRAAGGYSPTAPTYSPTAPKKKGGAATPTAAHSGSHLFGFP | partial inhibition | ~50 | inhibited cell transformation | – | –
SEQ ID NO:1: ERK heteropolyligand A-S1-B-S2-C-S3-D-S4-E-S5-F of SEQ ID NOS:91, 97, 28, 29, 30, 31, Xaa alanine, with spacers (protein, Synthetic polyligand) MPKKKPTPIQLNPAAKGRKPRDLELPAAAATGPLAPGPFGAGAYSPTAPTYSPTAPKKKGGGGAPRAPGGRRAGAGRRPRAPAKLSFFFPS | partial inhibition | ~50 | inhibited cell transformation | – | ERK activity in the endoplasmic reticulum reduced (MBP phosphorylation) (ERK; Cos7 cells with ER-active ERK (M1-RasV12), SEQ ID NO:1 co-expressed as fusion with ER localization signal and c-Myc tag): approximately 60%; Inhibition of ERK activity as measured by phosphorylation of myelin basic protein (MBP) (ERK; ERK activated at plasma membrane, ER or cell wide by localized Ras overexpression): location-selective inhibition of ERK activity at the endoplasmic reticulum
PLA-localized SEQ ID NO:1: SEQ ID NO:1 targeted to the plasma membrane (protein, left off: small tags and cut ends) MPKKKPTPIQLNPAAKGRKPRDLELPAAAATGPLAPGPFGAGAYSPTAPTYSPTAPKKKGGGGAPRAPGGRRAGAGRRPRAPAKLSFFFPS | – | ~50 | – | greatest degree of inhibition | Decrease in transformation (NIH3T3 cells [2]; transformation initiated with v-Src): ~60%
NXP: SEQ ID NO:1 fused to a nuclear-exclusion localization signal and c-Myc epitope tag (protein, left off: small tags and cut ends) MPKKKPTPIQLNPAAKGRKPRDLELPAAAATGPLAPGPFGAGAYSPTAPTYSPTAPKKKGGGGAPRAPGGRRAGAGRRPRAPAKLSFFFPS | – | – | – | slight inhibition | –
NLS: SEQ ID NO:1 fused to a nuclear localization signal and c-Myc epitope tag (protein, left off: small tags and cut ends) MPKKKPTPIQLNPAAKGRKPRDLELPAAAATGPLAPGPFGAGAYSPTAPTYSPTAPKKKGGGGAPRAPGGRRAGAGRRPRAPAKLSFFFPS | – | – | – | slight inhibition | –

Reference: patent US8283445B2, “Extracellular-signal-regulated-kinase (ERK) heteropolyligand polypeptide” (Intrexon Corporation, priority 2006, dated 2012)
